Data from article PMC9820295.

How the values were obtained:
[1] = target: DgDps1 (Dgeo_0281) (Deinococcus geothermalis) (UniProt Q1J1Q0); assay: SEC; HiLoad 16/600 Superdex 75 prep grade; 25 mM Tris-HCl pH 7.5, 150 mM NaCl; size markers ferritin 440 kDa, conalbumin 75 kDa, ovalbumin 43 kDa, anhydrase 29 kDa; also run with 1 mM Fe2+ or Fe3+
[2] = test system: DgDps1 (Dgeo_0281) (Deinococcus geothermalis); assay: EMSA; settings: EMSA 1x (from 5x stock): 20 mM HEPES pH 7.2, 32 mM KCl, 0.1 mM EDTA, 10% glycerol, 70 ng/uL BSA, 8 ng/uL poly(dI-dC), 2.5 mM DTT; 37 C 30 min; 6% native PAGE …
[3] = test system: Dgeo_0257 (putative Dps, DgDps3) (Deinococcus geothermalis); assay: EMSA; settings: no added metal; half-maximal shift, fragment not specified; EMSA 1x (from 5x stock): 20 mM HEPES pH 7.2, 32 mM KCl, 0.1 mM EDTA, 10% glycerol, 70 ng/uL BSA, 8 ng/uL poly(dI-dC), 2.5 mM DTT; 37 C 30 min; 6% native PAGE …

| stoichiometry N [1] | Substance | Kd [2] | Kd [3] |
| --- | --- | --- | --- |
| 2 | DgDps1 (Dgeo_0281) (from UniProt Q1J1Q0 1-222) (natural protein) | – | – |
| – | Dgeo_2112 ORF region | > 40 µM | < 4 µM |
| – | Dgeo_2112 promoter region | > 40 µM | < 4 µM |
